Results published in US20230416396A1 (Regeneron, published 2023).
Like-named read-outs stand apart in the source and are kept apart here.

Assays:
human 4-1BB on cells [1] = target: T1, human 4-1BB on cells (human, UniProt Q07011 24-255); experiment: cell-based or functional assay
human 4-1BB on cells [2] = target: T1, human 4-1BB on cells; experiment: cell-based or functional assay; remark: listed apart in the source
human 4-1BB on cells [3] = target: T1, human 4-1BB on cells; experiment: cell-based or functional assay; remark: listed apart in the source
human 4-1BB on cells [4] = target: T1, human 4-1BB on cells; experiment: cell-based or functional assay; remark: listed apart in the source
human 4-1BB on cells [5] = target: T1, human 4-1BB on cells; experiment: cell-based or functional assay; remark: listed apart in the source
human 4-1BB on cells [6] = target: T1, human 4-1BB on cells; experiment: cell-based or functional assay; remark: listed apart in the source
human 4-1BB on cells [7] = target: T1, human 4-1BB on cells; experiment: flow cytometry on HEK293/h4-1BB cells, APC anti-human secondary
Protocol: The ability of the multispecific antigen binding molecules to bind cells was assessed using flow cytometry. Cell lines were chosen to determine the ability of both the anti-CD38 and anti-4-1BB arms to bind their targets. […] Binding was detected by using a labeled secondary antibody and measuring fluorescence on a flow cytometer.
HEK293 and HEK293/4-1BB cells were lifted with trypsin, washed and resuspended in stain buffer (2% FBS in PBS) and added to wells of a 96 well V-bottom plate (3×10⁵ cells/well). A 1:5, 9-point, dose titration of test antibodies was diluted in stain buffer and added to cells to a final concentration ranging from 1.3 pM to 100 nM (a “no antibody” control was included as the ninth point ([…]) labeled as “secondary only”). Cells and antibodies were incubated for 30 min on ice and then washed in stain buffer. Cells were resuspended in 2 ug/ml allophycocyanin (APC) conjugated goat-anti human secondary antibody and incubated for 30 min on ice. Cells were then washed and resuspended in viability dye (according to the manufacturer's protocol) and incubated for 30 min on ice. Cells were then washed with stain buffer and resuspended in 2% PFA for 30 min on ice. After washing, cells were filtered and analyzed by flow cytometry to determine the geometric mean fluorescence intensity (gMFI), which was subsequently plotted using GraphPad Prism software. EC₅₀ values of the antibodies were determined from a 4-parameter logistic equation over a 9-point dose response curve (including secondary only control).

[8] = target: T2, human 4-1BB expressed with a C-terminal murine Fc tag (human, UniProt Q07011 24-186); experiment: SPR Biacore 8k, antibody captured by anti-human Fc, h4-1BB.mFc as analyte, 25 C
T2 construct: also called h4-1BB.mFc; REGN3585; not shown: C-terminal murine Fc tag
T2 sequence (Q07011 24-186 limits assumed): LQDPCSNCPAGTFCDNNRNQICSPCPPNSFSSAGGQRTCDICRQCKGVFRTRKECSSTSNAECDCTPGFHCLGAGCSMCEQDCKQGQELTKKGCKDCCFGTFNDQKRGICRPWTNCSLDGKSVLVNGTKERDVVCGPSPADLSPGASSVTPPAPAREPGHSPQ
Protocol: Equilibrium dissociation constants (KD values) for human 4-1BB expressed with a C-terminal myc-myc-hexahistidine tag (h4-1BB.mmH, REGN3584) or human 4-1BB expressed with a C-terminal murine Fc tag (h4-1BB.mFc, REGN3585) binding to purified anti-CD38×4-1BB 1+2 antibodies were determined using a real-time surface plasmon resonance biosensor using a Biacore 8k instrument. The CM5 Biacore sensor surface was derivatized by amine coupling with a monoclonal mouse anti-human Fc antibody (REGN2567). All Biacore binding studies were performed in a buffer composed of 0.01M HEPES pH 7.4, 0.15M NaCl, 3 mM EDTA, 0.05% v/v Surfactant P20 (HBS-EP running buffer). […] Antibody-reagent association was monitored for 5 minutes while dissociation in HBS-EP running buffer was monitored for 10 minutes. At the end of each cycle, the anti-CD38×4-1BB 1+2 antibody capture surface was regenerated using a 10 second injection of 20 mM phosphoric acid. All binding kinetics experiments were performed at 25° C.
(§1) Kinetic association (kₐ) and dissociation (kd) rate constants were determined by fitting the real-time sensorgrams to a 1:1 binding model using Cytiva Insight curve fitting software. Binding dissociation equilibrium constants (KD) and dissociative half-lives (t/2) were calculated from the kinetic rate constants as: […]

[9] = target: T2, human 4-1BB expressed with a C-terminal …; experiment: SPR Biacore 4000, h4-1BB.mFc captured by anti-mouse Fc, antibody as analyte, 25 C
Protocol: Equilibrium dissociation constants (KD values) for human 4-1BB expressed with a C-terminal murine Fc tag (h4-1BB.mFc, REGN3585) binding to purified anti-CD38×4-1BB 1+2 antibodies were determined using a real-time surface plasmon resonance biosensor using a Biacore 4000 instrument. […] All Biacore binding studies were performed in a buffer composed of 0.01M HEPES pH 7.4, 0.15M NaCl, 3 mM EDTA, 0.05% v/v Surfactant P20 (HBS-EP running buffer). Different concentrations of CD38×4-1BB 1+2 constructs prepared in HBS-EP running buffer (ranging from 100 to 6.25 nM in 4-fold serial dilutions) were injected over the h4-1BB.mFc (REGN3585) captured surface at a flow rate of 30 μL/minute. Antibody-reagent association was monitored for 5 minutes while dissociation in HBS-EP running buffer was monitored for 10 minutes. At the end of each cycle, the h4-1BB.mFc capture surface was regenerated using a 40 sec injection of 10 mM glycine, pH 1.5. All binding kinetics experiments were performed at 25° C.
as §1

T1 sequence (Q07011 24-255): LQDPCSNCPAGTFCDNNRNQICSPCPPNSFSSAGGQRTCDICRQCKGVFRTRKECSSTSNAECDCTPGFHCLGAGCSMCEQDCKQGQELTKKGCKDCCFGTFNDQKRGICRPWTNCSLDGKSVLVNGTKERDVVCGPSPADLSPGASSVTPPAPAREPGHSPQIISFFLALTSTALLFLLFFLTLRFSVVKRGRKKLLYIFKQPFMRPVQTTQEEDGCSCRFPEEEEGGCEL

EC50 of IL-2 release, T cells + HEK293/CD20/CD38 + REGN1979 (human 4-1BB on cells [1]): 0.0058 nM
EC50 of IL-2 release, T cells + MOLP-8 + IsoC (human 4-1BB on cells [1]): 0.00221 nM
EC50 of IL-2 release, T cells + MOLP-8 + REGN5458 (human 4-1BB on cells [1]): 0.0231 nM
MAX IL-2 release, T cells + HEK293/CD20 + REGN1979 (human 4-1BB on cells [1]): 199 pg/mL
MAX IL-2 release, T cells + HEK293/CD20/CD38 + IsoC (human 4-1BB on cells [1]): 18 pg/mL
MAX IL-2 release, T cells + HEK293/CD20/CD38 + REGN1979 (human 4-1BB on cells [1]): 2850 pg/mL
MAX IL-2 release, T cells + MOLP-8 + IsoC (human 4-1BB on cells [1]): 331 pg/mL
MAX IL-2 release, T cells + MOLP-8 + REGN5458 (human 4-1BB on cells [1]): 692 pg/mL
EC50 of IL-2 release, T cells + HEK293/CD20/CD38 + REGN2281 (human 4-1BB on cells [2]): 0.0535 nM
EC50 of IL-2 release, T cells + MOLP-8 + REGN5458 (human 4-1BB on cells [2]): 0.216 nM
EC50 of IL-2 release, T cells + NALM-6 (human 4-1BB on cells [2]): 0.0485 nM
MAX IL-2 release, T cells + HEK293/CD20 + REGN2281 (human 4-1BB on cells [2]): 61 pg/mL
MAX IL-2 release, T cells + HEK293/CD20/CD38 + REGN2281 (human 4-1BB on cells [2]): 781 pg/mL
MAX IL-2 release, T cells + MOLP-8 + IsoC (human 4-1BB on cells [2]): 73 pg/mL
MAX IL-2 release, T cells + MOLP-8 + REGN5458 (human 4-1BB on cells [2]): 66 pg/mL
MAX IL-2 release, T cells + NALM-6 (human 4-1BB on cells [2]): 192 pg/mL
EC50 of IFNγ release, T cells + HEK293/CD20/CD38 + REGN2281 (human 4-1BB on cells [3]): 0.0617 nM
EC50 of IFNγ release, T cells + MOLP-8 + REGN5458 (human 4-1BB on cells [3]): 0.0707 nM
EC50 of IFNγ release, T cells + NALM-6 (human 4-1BB on cells [3]): 0.0703 nM
MAX IFNγ release, T cells + HEK293/CD20 + REGN2281 (human 4-1BB on cells [3]): 1910 pg/mL
MAX IFNγ release, T cells + HEK293/CD20/CD38 + REGN2281 (human 4-1BB on cells [3]): 6050 pg/mL
MAX IFNγ release, T cells + MOLP-8 + IsoC (human 4-1BB on cells [3]): 103 pg/mL
MAX IFNγ release, T cells + MOLP-8 + REGN5458 (human 4-1BB on cells [3]): 3280 pg/mL
MAX IFNγ release, T cells + NALM-6 (human 4-1BB on cells [3]): 655 pg/mL
EC50 of luciferase activity, HEK293/NFkB-Luc/h4-1BB reporter + OPM2 (human 4-1BB on cells [4]): 0.00735 nM
MAX luciferase activity, HEK293/NFkB-Luc/h4-1BB reporter + HEK293/CD20 (human 4-1BB on cells [4]): 1.2e+06 RLU
MAX luciferase activity, HEK293/NFkB-Luc/h4-1BB reporter + HEK293/CD20/CD38 (human 4-1BB on cells [4]): 2.4e+06 RLU
MAX luciferase activity, HEK293/NFkB-Luc/h4-1BB reporter + MOLP-8 (human 4-1BB on cells [4]): 2.3e+06 RLU
MAX luciferase activity, HEK293/NFkB-Luc/h4-1BB reporter + OPM2 (human 4-1BB on cells [4]): 1.9e+06 RLU
EC50 of IL-2 release, T cells + NALM6 + Cemiplimab (human 4-1BB on cells [5]): 0.0477 nM
EC50 of IL-2 release, T cells + NALM6 + IgG4P (human 4-1BB on cells [5]): 0.0579 nM
EC50 of IL-2 release, T cells + NALM6/PD-L1 + Cemiplimab (human 4-1BB on cells [5]): 0.0911 nM
EC50 of IL-2 release, T cells + NALM6/PD-L1 + IgG4P (human 4-1BB on cells [5]): 0.117 nM
EC50 of IFNγ release, T cells + NALM-6 + IgG4P (human 4-1BB on cells [6]): 0.0815 nM
EC50 (human 4-1BB on cells [7]): 0.608 nM
MAX gMFI (human 4-1BB on cells [7]): 1.4e+06 gMFI
100 nM h4-1BB.mFc Bind (RU) [8]: 224 RU
Kd [8]: 1.18 nM
koff [8]: 0.000231 s⁻¹
kon [8]: 195000 M⁻¹ s⁻¹
t½ [8]: 50 min
100 nM Ab Bind (RU) [9]: 206 RU
Kd [9]: 0.56 nM
koff [9]: 0.000351 s⁻¹
kon [9]: 626000 M⁻¹ s⁻¹
t½ [9]: 32.9 min
B1: REGN7647 (bispecific antibody, human IgG4 S228P, kappa)
heavy 1: EVQLVESGGGLVQPGRSLRLSCGASGFTFDDYVMHWVRQIPGKGLEWVAGISWNSGSIGYADSVKGRFTISRDNAKNSLYLQMNSLRAEDTALYFCAKDHIDPYSSSLYYYYGMDVWGQGTTVTVSSASTKGPSVFPLAPCSRSTSESTAALGCLVKDYFPEPVTVSWNSGALTSGVHTFPAVLQSSGLYSLSSVVTVPSSSLGTKTYTCNVDHKPSNTKVDKRVESKYGPPGGGGSGGGGSGGGGSEVQLVESGGGLVQPGRSLRLSCGASGFTFDDYVMHWVRQIPGKGLEWVAGISWNSGSIGYADSVKGRFTISRDNAKNSLYLQMNSLRAEDTALYFCAKDHIDPYSSSLYYYYGMDVWGQGTTVTVSSASTKGPSVFPLAPCSRSTSESTAALGCLVKDYFPEPVTVSWNSGALTSGVHTFPAVLQSSGLYSLSSVVTVPSSSLGTKTYTCNVDHKPSNTKVDKRVESKYGPPCPPCPAPPVAGPSVFLFPPKPKDTLMISRTPEVTCVVVDVSQEDPEVQFNWYVDGVEVHNAKTKPREEQFNSTYRVVSVLTVLHQDWLNGKEYKCKVSNKGLPSSIEKTISKAKGQPREPQVYTLPPSQEEMTKNQVSLTCLVKGFYPSDIAVEWESNGQPENNYKTTPPVLDSDGSFFLYSRLTVDKSRWQEGNVFSCSVMHEALHNRFTQKSLSLSPGK
heavy 2: EVQLVESGGGLVQPGRSLRLSCAASGFTFDDYAMHWVRQAPGKGLEWVSGISWKSDNIGYADSVKGRFTISRDNAKNSLYLQMNSLRAEDTALYYCAKALGGWKFDYYYGMDVWGQGTTVTVSSASTKGPSVFPLAPCSRSTSESTAALGCLVKDYFPEPVTVSWNSGALTSGVHTFPAVLQSSGLYSLSSVVTVPSSSLGTKTYTCNVDHKPSNTKVDKRVESKYGPPCPPCPAPPVAGPSVFLFPPKPKDTLMISRTPEVTCVVVDVSQEDPEVQFNWYVDGVEVHNAKTKPREEQFNSTYRVVSVLTVLHQDWLNGKEYKCKVSNKGLPSSIEKTISKAKGQPREPQVYTLPPSQEEMTKNQVSLTCLVKGFYPSDIAVEWESNGQPENNYKTTPPVLDSDGSFFLYSRLTVDKSRWQEGNVFSCSVMHEALHNHYTQKSLSLSLGK
light: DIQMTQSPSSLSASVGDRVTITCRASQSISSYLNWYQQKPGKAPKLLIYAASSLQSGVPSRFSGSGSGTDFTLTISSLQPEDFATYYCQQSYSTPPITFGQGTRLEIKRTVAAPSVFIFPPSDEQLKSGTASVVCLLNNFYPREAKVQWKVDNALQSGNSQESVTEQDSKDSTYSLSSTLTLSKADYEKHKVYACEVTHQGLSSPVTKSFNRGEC
notes: 1+2 format, hIgG4P-PVA; The linker between the two 4-1BB Fabs is (G4S)3v15; also called CD38x4-1BB (1 + 2), (G4S)3v15; 26812P2 x 35333P2 (IN) + 35333P2 (OUT)
